The values below come from paper PMC11764377.

The target of test [1] is Allochromatium tepidum LH1 α1β1 heterodimer subunit (of the Ca2+-bound LH1-α1β1 complex) (Allochromatium tepidum). In words: cryo-EM structure; LH1-only complex co-expressed in Rsp. rubrum H2 and purified in β-DDM, ~5 mg/mL; C14 symmetry applied; closed ring of 14 αβ-heterodimers.
For test [2], the target named is Allochromatium tepidum LH1 α2β1 heterodimer subunit (of the Ca2+-free LH1-α2β1 complex) (Allochromatium tepidum). Described as above.

Substance “Allochromatium tepidum LH1 α1β1 heterodimer subunit (of the Ca2+-bound LH1-α1β1 complex)” came in with a stoichiometry N in test [1] of 14. The substance “Allochromatium tepidum LH1 α2β1 heterodimer subunit (of the Ca2+-free LH1-α2β1 complex)” showed a stoichiometry N in test [2] of 14.
